According to patent US20240035031A1:

Molecular target: PYL1-MS2 (MS2 binding protein fused to PYL1 via a glycine-serine linker) (UniProt Q8VZS8)
Test: cell-based or functional assay

- GFP+ cells by flow cytometry (split GFP trans-splicing reporter) in the presence of 1.5 mM ABA (% of cells GFP+): > 40
Substance: dPspCas13b-ABI1 (catalytically inactive Prevotella sp. Cas13b fused to the abscisic acid-binding protein ABI1 via a glycine-serine linker) (from UniProt P49597 126-423)
